Data as given in patent publication US20200079850A1 (SUTRO BIOPHARMA, published 2020).

T1: human LAG3-Fc (R&D Systems #2319-L3) (human, UniProt P18627 23-450)
T1 construct: Bought protein; also called Human LAG3 (Biacore)
T1 sequence: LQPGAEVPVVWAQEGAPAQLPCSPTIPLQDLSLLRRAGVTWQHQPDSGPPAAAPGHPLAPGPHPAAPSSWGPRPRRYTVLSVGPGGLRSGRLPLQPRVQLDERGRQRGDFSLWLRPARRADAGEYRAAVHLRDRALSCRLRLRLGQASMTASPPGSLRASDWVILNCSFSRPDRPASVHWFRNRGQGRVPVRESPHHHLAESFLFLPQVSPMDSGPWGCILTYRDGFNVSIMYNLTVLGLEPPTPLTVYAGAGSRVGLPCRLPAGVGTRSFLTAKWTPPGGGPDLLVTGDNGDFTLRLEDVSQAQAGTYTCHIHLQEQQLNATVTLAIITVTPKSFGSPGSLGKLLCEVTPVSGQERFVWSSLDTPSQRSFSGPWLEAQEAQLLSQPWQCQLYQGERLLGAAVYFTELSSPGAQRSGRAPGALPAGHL

T2: human LAG3 expressed on the cell surface (CHO-LAG3, 293T-LAG3 cells) (human, UniProt P18627 23-525)
T2 construct: Stably transfected CHO or HEK293T cells; also called Human LAG3 (CHO); Human LAG3 (293T)
T2 sequence: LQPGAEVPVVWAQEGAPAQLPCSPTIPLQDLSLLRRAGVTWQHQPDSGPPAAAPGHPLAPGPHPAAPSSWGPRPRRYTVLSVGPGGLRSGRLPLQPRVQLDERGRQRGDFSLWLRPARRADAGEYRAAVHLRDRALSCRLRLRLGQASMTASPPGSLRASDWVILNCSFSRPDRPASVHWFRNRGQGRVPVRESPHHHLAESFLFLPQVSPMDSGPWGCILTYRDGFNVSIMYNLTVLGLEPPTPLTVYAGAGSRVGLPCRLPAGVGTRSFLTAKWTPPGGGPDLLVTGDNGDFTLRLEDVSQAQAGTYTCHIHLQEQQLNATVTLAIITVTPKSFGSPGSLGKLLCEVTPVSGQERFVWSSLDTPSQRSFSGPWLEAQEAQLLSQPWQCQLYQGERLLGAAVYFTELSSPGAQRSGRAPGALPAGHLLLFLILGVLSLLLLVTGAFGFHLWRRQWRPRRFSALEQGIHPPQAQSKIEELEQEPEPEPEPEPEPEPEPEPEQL

T3: recombinant human LAG3 protein (rhLAG3), HIS-tagged (ACRO) or biotinylated (R&D Cat #2319-C3) (human, UniProt P18627 23-450, biotinylated in part of the assays)
T3 sequence: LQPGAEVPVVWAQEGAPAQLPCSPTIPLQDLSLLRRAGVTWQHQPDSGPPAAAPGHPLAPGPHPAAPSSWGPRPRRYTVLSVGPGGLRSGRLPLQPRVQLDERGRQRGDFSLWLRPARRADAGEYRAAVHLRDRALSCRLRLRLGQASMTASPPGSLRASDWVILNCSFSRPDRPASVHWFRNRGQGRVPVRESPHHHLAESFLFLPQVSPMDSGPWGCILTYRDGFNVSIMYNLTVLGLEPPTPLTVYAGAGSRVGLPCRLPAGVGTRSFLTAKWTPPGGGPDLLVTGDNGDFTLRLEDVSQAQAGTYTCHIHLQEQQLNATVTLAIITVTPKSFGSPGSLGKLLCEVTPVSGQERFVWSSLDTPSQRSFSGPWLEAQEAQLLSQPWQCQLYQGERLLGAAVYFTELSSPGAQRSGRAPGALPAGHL


Tests used:
[1] = molecular target: T1, human LAG3-Fc (R&D Systems #2319-L3); assay: SPR (Biacore), antibody captured by anti-Flag, LAG3-Fc as analyte, 25 C
Experimental: Anti-Flag M2 IgG (Sigma-Aldrich # F9291) was immobilized onto a CMS chip (GE Life Sciences) using amine coupling chemistry (from Amine Coupling Kit, GE Life Sciences). The immobilization steps were carried out at a flow rate of 25 μL/min in 1×HBS-EP+ buffer (GE Life Sciences; 10×Stock diluted before use). The sensor surfaces were activated for 7 min with a mixture of NHS (0.05 M) and EDC (0.2 M). The Anti-Flag M2 IgG was injected over all 4 flow cells at a concentration of 25 μg/mL in 10 mM sodium acetate, pH 4.5, for 7 min. Ethanolamine (1 M, pH 8.5) was injected for 7 min to block any remaining activated groups. An average of 12,000 response units (RU) of capture antibody was immobilized on each flow cell.
Off-rate and kinetic binding experiments were performed at 25° C. using 1×HBS-EP+buffer. Test and control antibodies were injected over the Anti-Flag surface at concentrations of 5-10 μg/mL for 12 seconds at a flow rate of 10 μL/min on flow cells 2, 3 and 4, followed by a buffer wash for 30 seconds at the same flow rate. Kinetic characterization of antibody samples was carried out with a single concentration of antigen (for off-rate ranking) or a dilution series of antigen (for kinetic characterization) and 1 injection of 0 nM antigen. After capturing ligand (antibody) on the anti-Flag surface, the analyte (human LAG3-Fc, R&D Systems #2319-L3; or cynomolgus LAG3-Fc, accession # NC 022282.1) was bound at 50, 25, 12.5, 6.25, and 0 nM for 180 seconds, followed by a 600 second dissociation phase at a flow rate of 50 μl/min Between each ligand capture and analyte binding cycle, regeneration was carried out using 2 injections of 10 mM glycine pH 2.0 for 30 seconds at 30 μL/min, followed by a 30 second buffer wash step.
The data were fit with the Biacore T200 Evaluation software, using a 1:1 Langmuir binding model. KD (affinity, nM) was determined as a ratio of the kinetic rate constants calculated from the fits of the association and dissociation phases.

[2] = molecular target: T2, human LAG3 expressed on the cell …; assay: flow cytometry, CHO cells expressing human LAG3
Experimental: LAG3 antibody variants were tested in a fluorescence-activated cell sorting (FACS) cell-binding assay. Chinese Hamster Ovary (CHO) cells or HEK293T cells stably expressing the human target molecule LAG3 on the cell surface (CHO-LAG3, 293T-LAG3) were used to screen for cell binders by flow cytometry. Parental CHO or 293T cells were used as a negative control to determine background-binding levels. Cells were cultured in RPMI with 10% FCS Penicillin/Streptomycin (or Pen/Strep) and glutamine (or Gln) and split every 3-4 days at 10⁵ cells/ml.
A mix of parental CHO cells and CHO-LAG3 cells (or 293T and 293T-LAG3 cells) was prepared as follows: Parental CHO cells were washed 2× in PBS then incubated in PBS containing 1 nM CellTrace™ Oregon Green488® (Life Technologies) at 37° C. for 30 minutes. […] Parental CHO cells and CHO-LAG3 cells were then mixed to obtain a 1:1 cell suspension and seeded at 100 μl per well on 96 well polypropylene plates. Plates were spun at 1500 rpm for 5 minutes and cell pellets were suspended in 50 μl FACS buffer containing 6-12 point dilutions of anti-LAG3 variants starting from concentrations of ˜100-200 nM antibody, dispensed using BioMekFX (Beckman Coulter). Cells were then incubated on ice for 1 hr, washed with FACS buffer and incubated for 1 hr on ice with 50 μl FACS buffer containing 2.5 μg/ml R-Phycoerythrin-conjugated Goat Anti-Human IgG (Jackson ImmunoResearch) or AF647-conjugated Goat Anti-mouse IgG (Life Technologies) dispensed using BioMekFX (Beckman Coulter). Cells were then washed 2× with FACS buffer and fixed for 10 minutes in 200 μl PBS with 2% PFA prior to fluorescence detection. Samples were acquired using a Beckton Dickinson LSRII FACS. Mean Fluorescence Intensity of LAG3 antibody binding was analyzed using Tree Star, Inc. FlowJo® software.

[3] = molecular target: T3, recombinant human LAG3 protein …; assay: flow cytometry competition, rhLAG3 binding to Daudi cells; competitor MHCII
Experimental: DAUDI cells express high levels of Major Histocompatibility Class II (MHCII) molecules, a natural ligand for LAG3, on the cell surface. DAUDI cells were used to screen for antibodies that inhibit binding of HIS-tagged (ACRO) or biotinylated recombinant human LAG3 protein (rhLAG3) to MHCII expressed on the cell surface.
DAUDI cells were cultured in RPMI w/10% FCS Pen/Strep and Gln and split every 3-4 days at 10^5 cells/ml. Cells were washed 2× with FACS buffer (PBS w/2% FCS), […] at a final concentration of 1×10⁶ cells/ml and seeded at 100 μl per well on 96 well polypropylene plates. Plates were spun at 1500 rpm for 5 minutes and cell pellets were suspended in 50 μl FACS buffer containing 8 point 1:3 dilutions (2× concentrated) of anti-LAG3 antibody variants, starting from high concentration of −600 nM. 50 μl FACS buffer containing 10-20 μg/ml of the HIS-tagged rhLAG3 protein or 40 μg/ml of the biotinylated rhLAG3 protein were then added to the cells. Cell were then incubated in ice for 1 hr, washed with FACS buffer and incubated for 1 hr in ice with 50 μl FACS buffer containing 2 μg/ml R-Phycoerythrin-conjugated Streptavidin (eBiosciences) or 1 μg/ml R-Phycoerythrin-conjugated anti-HIS IgG (Abcam). Cell were washed 2× with FACS buffer and fixed for 10 minutes in 200 μl PBS w/2% PFA prior to acquisition.

[4] = molecular target: T4, human PD-1 expressed on the surface of CHO cells (human, UniProt Q15116 25-288); assay: flow cytometry, CHO-PD1 cells
T4 construct: I took it as human PD-1; also called CHO-PD1
T4 sequence (Q15116 25-288 limits assumed): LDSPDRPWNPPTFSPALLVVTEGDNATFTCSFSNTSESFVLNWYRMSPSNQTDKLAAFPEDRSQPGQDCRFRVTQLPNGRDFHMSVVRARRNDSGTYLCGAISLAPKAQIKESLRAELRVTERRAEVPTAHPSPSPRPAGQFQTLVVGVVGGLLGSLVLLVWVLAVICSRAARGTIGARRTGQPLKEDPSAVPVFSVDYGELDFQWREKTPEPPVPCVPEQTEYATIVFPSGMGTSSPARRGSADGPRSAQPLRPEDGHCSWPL
Experimental: CHO-k cells stably expressing PD-1 or LAG3 (human or cynomolgus) on the cell surface were used to assess binding affinity of anti-PD-1/LAG3 bispecific antibody constructs. Cells were seeded at 100,000 cells/well in 100 μL of FACS buffer (1×PBS, 0.5% BSA, 0.1% sodium azide) in 96-well polypropylene plates. The cells were centrifuged at 1.5K rpm and resuspended with test antibodies diluted in FACS buffer and incubated on ice for 1 hour. The cells were washed twice with FACS buffer and incubated on ice for 30 mins with R-Phycoerythrin-AffiniPure F(ab′)2 Fragment Goat Anti-Human IgG (H+L) secondary detection antibody (1:200 dilution, Jackson ImmunoResearch Laboratories, West Grove, Pa.). The cells were washed twice with FACS buffer, fixed in 4% paraformaldehyde in PBS (Santa Cruz Biotechnology; Dallas, Tex.) for 20 mins on ice in the dark, washed twice with FACS buffer, and analyzed using the BD LSR II Flow Cytometer (BD Biosciences; San Jose, Calif.). Data were analyzed using FlowJo (FlowJo, LLC; Ashland, Oreg.) to determine mean fluorescence intensities. Binding constants were calculated using the statistical software, GraphPad Prism (GraphPad Software; La Jolla, Calif.) using the nonlinear regression equation, one site—specific binding with Hill slope. The secondary antibody by itself was used as a control.

| Kd [1] [nM] | koff [1] [s⁻¹] | kon [1] [M⁻¹ s⁻¹] | Kd [2] [nM] | IC50 [3] [nM] | Bmax [4] | Kd [4] [nM] | Binder |
| --- | --- | --- | --- | --- | --- | --- | --- |
| 0.64 | 0.000302 | 472000 | 1.92 | 1 | – | – | SRP1449-B03 (scFv, V domains shown) VH: QVQLVESGGGVVQPGRSLRLSCAASGFTFSSYGMHWVRQAPGKGLEWVAAIWYDASYKYYADSVKGRFTISRDNSKNTLYLQMNSLRAEDTAVYYCAREWAVASWDYALDVWGQGTTVTVSS VL: EIVLTQSPGTMSLSPGERATLSCRASQSVSSSYLAWYQQKPGQAPRLLIYGASSRATGIPDRFSGSGSGTDFTLTISRLEPEDFAVYYCQQYDRSPLTFGPGTKVDIK |
| 0.676 | 0.000536 | 794000 | 1.06 | 1.2 | – | – | SRP1449-B07 (scFv, V domains shown) VH: QVQLVESGGGVVQPGRSLRLSCAASGFTFSSYGMHWVRQAPGKGLEWVAVIWYDGSNKYYADSVKGRFTISRDNSKNTLYLQMNSLRAEDTAVYYCAREWAVSSWDYGMDVWGQGTTVTVSS VL: not shown |
| – | – | – | – | – | 6380 | 0.8 | Construct G: aPD1 1353-G10 Fab_K × aLAG3 1449-G09.2 scFvFc_H (three-chain Fab x scFvFc) (bispecific antibody, human IgG1, lambda) heavy: not shown light: MSYELTQPPSVSVSPGQTARITCSGDALPKQYAYWYQQKPGQAPVMVIYKDTERPSGIPERFSGSSSGTKVTLTISGVQAEDEADYYCQSADNSITYRVFGGGTKVTVLGQPKAAPSVTLFPPSSEELQANKATLVCLISDFYPGAVTVAWKADSSPVKAGVETTTPSKQSNNKYAASSYLSLTPEQWKSHRSYSCQVTHEGSTVEKTVAPTECS scFv: not shown |
| – | – | – | – | – | 5460 | 0.4 | Construct H: aPD1 1353-G10 Fab_H × aLAG3 1449-G09.2 scFvFc_K (three-chain Fab x scFvFc) (bispecific antibody, human IgG1, lambda) heavy: not shown light: MSYELTQPPSVSVSPGQTARITCSGDALPKQYAYWYQQKPGQAPVMVIYKDTERPSGIPERFSGSSSGTKVTLTISGVQAEDEADYYCQSADNSITYRVFGGGTKVTVLGQPKAAPSVTLFPPSSEELQANKATLVCLISDFYPGAVTVAWKADSSPVKAGVETTTPSKQSNNKYAASSYLSLTPEQWKSHRSYSCQVTHEGSTVEKTVAPTECS scFv: not shown |
| 10.3 | 0.000515 | 50200 | 18 | 64.3 | – | – | 421.61.4.5G11 (antibody, V domains shown) VH: EVQLQQSGAELVRSGASVKLSCTASGFNIKDYYMHWVKQRPEQGLEWIAWIDPENGDTEYAPKFQGRATLTADTSSNTAYLHLSSLTSEDTAVYYCNAPDALDYWGQGTSVTVSS VL: not shown |
